{"source": "the supplement of paper PMC10724198", "note": "± gives the standard deviation of the averaged measurements.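 Further: PSI is a weighted mean of sequencing reads over stability bins, variants kept only with over 10 reads, mCherry proximal and sfGFP distal, peptide attached via GGGS linker.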"}
{"system": "Saccharomyces cerevisiae", "experiment": "protein stability index of tFT-peptide fusion (C-terminal peptide) (PSI (0-1 scale)); higher = more stable (slower turnover)", "conditions": "genetic background: doa10 deletion; temperature: 30 C", "method": "(§1)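 MPS profiling in S. cerevisiae of the tFT-X12 degron library: putative degron peptides plus stable controls, 12 aa, fused to the C-terminus of a sfGFP-mCherry timer. Cells are FACS-sorted into 8 mCherry/sfGFP bins and deep-sequenced. PSI runs from 0 (unstable) to 1 (stable). Backgrounds are wild type, das1Δ and doa10Δ at 30 °C, and wild type, das1Δ, cdc34-1 and cdc53-1 at 37 °C; 2-3 technical replicates each.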"}
{"sequence": "SWWGDVVWFVVC", "protein stability index": "0.176 ± 0.018"}
{"sequence": "SYGNGIPIRMLH", "protein stability index": "0.204 ± 0.013"}
{"sequence": "SYLPSHVYIFLL", "protein stability index": "0.097 ± 0.0087"}
{"sequence": "TFLCSSLALAVI", "protein stability index": "0.317 ± 0.023"}
{"sequence": "TGYRYVGRFFVV", "protein stability index": "0.155 ± 0.0032"}
{"sequence": "TLCFRLSWVLLV", "protein stability index": "0.0335 ± 0.006"}
{"sequence": "TLNKDILIIKCA", "protein stability index": "0.135 ± 0.022"}
{"sequence": "TNFVVRLRFVLF", "protein stability index": "0.29 ± 0.015"}
{"sequence": "TVRVVMLRLLFT", "protein stability index": "0.309 ± 0.02"}
{"sequence": "VAFLWVAFCFSG", "protein stability index": "0.178 ± 0.019"}
{"sequence": "VAIMSIWLVYML", "protein stability index": "0.331 ± 0.0076"}
{"sequence": "VALAVRVVVCGA", "protein stability index": "0.0887 ± 0.0097"}
{"sequence": "VAWCVWCWWWAV", "protein stability index": "0.06 ± 0.016"}
{"sequence": "VCLFWLFLWRIL", "protein stability index": "0.217 ± 0.014"}
{"sequence": "VCLWVEVLIVLG", "protein stability index": "0.106 ± 0.031"}
{"sequence": "VCPWGYCSEWGF", "protein stability index": "0.692 ± 0.043"}
{"sequence": "VFCSVGVSLFFG", "protein stability index": "0.258 ± 0.015"}
{"sequence": "VFFLFAVCSVLV", "protein stability index": "0.0641 ± 0.0032"}
{"sequence": "VFFLRVHFWSFF", "protein stability index": "0.138 ± 0.015"}
{"sequence": "VFFLVHFHLPMF", "protein stability index": "0.394 ± 0.0077"}
{"sequence": "VFGFLVFYVCVR", "protein stability index": "0.135 ± 0.027"}
{"sequence": "VFHMFGWCGGAR", "protein stability index": "0.678 ± 0.042"}
{"sequence": "VFLFSLCIRLSR", "protein stability index": "0.133 ± 0.013"}
{"sequence": "VFLVFSVWVVYR", "protein stability index": "0.2068 ± 0.00094"}
{"sequence": "VFLVRTVTQISA", "protein stability index": "0.219 ± 0.0079"}
{"sequence": "VFRLFFLLVWLV", "protein stability index": "0.1663 ± 0.00045"}
{"sequence": "VFRLLALLWRFF", "protein stability index": "0.323 ± 0.037"}
{"sequence": "VFSLAFYLVLFF", "protein stability index": "0.415 ± 0.011"}
{"sequence": "VFSRVLSVLLSA", "protein stability index": "0.2377 ± 0.0015"}
{"sequence": "VFVGWVLCVVGG", "protein stability index": "0.0778 ± 0.03"}
{"sequence": "VFWLLVAVLRYW", "protein stability index": "0.263 ± 0.011"}
{"sequence": "VGVSVVMVVEVP", "protein stability index": "0.0409 ± 0.011"}
{"sequence": "VGVVLWWVVLMV", "protein stability index": "0.154 ± 0.012"}
{"sequence": "VGYHCIVGVIFL", "protein stability index": "0.326 ± 0.012"}
{"sequence": "VIRFNSAPRFLV", "protein stability index": "0.108 ± 0.031"}
{"sequence": "VIWIRMISFFVW", "protein stability index": "0.174 ± 0.01"}
{"sequence": "VIYNSALLLVRL", "protein stability index": "0.325 ± 0.014"}
{"sequence": "VLAFFPLFFFLS", "protein stability index": "0.144 ± 0.013"}
{"sequence": "VLGARWHWIYIA", "protein stability index": "0.0782 ± 0.011"}
{"sequence": "VLGLYSLLLSFF", "protein stability index": "0.277 ± 0.013"}
{"sequence": "VLGRCWWIVSDL", "protein stability index": "0.659 ± 0.025"}
{"sequence": "VLISLVLLFRCW", "protein stability index": "0.307 ± 0.028"}
{"sequence": "VLLMFFFRFSAL", "protein stability index": "0.483 ± 0.011"}
{"sequence": "VLVFYFCFSFCS", "protein stability index": "0.11 ± 0.015"}
{"sequence": "VLVLSFLYRMVK", "protein stability index": "0.271 ± 0.013"}
{"sequence": "VLVSYAIVILYL", "protein stability index": "0.12 ± 0.008"}
{"sequence": "VLVVLVVCRRAE", "protein stability index": "0.18 ± 0.041"}
{"sequence": "VLYLQCITSAGH", "protein stability index": "0.31 ± 0.044"}
{"sequence": "VMRMVWVLGVMC", "protein stability index": "0.178 ± 0.0075"}
{"sequence": "VPSMSIVWCRVL", "protein stability index": "0.168 ± 0.01"}
{"sequence": "VPSPWVFSLFLH", "protein stability index": "0.14 ± 0.0025"}
{"sequence": "VQFISLVCLFRF", "protein stability index": "0.346 ± 0.033"}
{"sequence": "VQWPLLVVGCMG", "protein stability index": "0.211 ± 0.015"}
{"sequence": "VSFRISAIFVCV", "protein stability index": "0.183 ± 0.011"}
{"sequence": "VSPATFLFYFFF", "protein stability index": "0.37374 ± 0.00014"}
{"sequence": "VTFCFLFVWFLV", "protein stability index": "0.23 ± 0.015"}
{"sequence": "VTGFGVAIVCVT", "protein stability index": "0.191 ± 0.0072"}
{"sequence": "VVFFFKFFLLRL", "protein stability index": "0.362 ± 0.018"}
{"sequence": "VVGLVSIVQVIM", "protein stability index": "0.279 ± 0.011"}
{"sequence": "VVGRWGFVVECW", "protein stability index": "0.227 ± 0.011"}
{"system": "Saccharomyces cerevisiae", "experiment": "protein stability index of tFT-peptide fusion (C-terminal peptide) (PSI (0-1 scale)); higher = more stable (slower turnover)", "conditions": "genetic background: wild type; temperature: 30 C", "method": "as §1"}
{"sequence": "SWWGDVVWFVVC", "protein stability index": "0.199 ± 0.03"}
{"sequence": "SYGNGIPIRMLH", "protein stability index": "0.217 ± 0.013"}
{"sequence": "SYLPSHVYIFLL", "protein stability index": "0.0758 ± 0.019"}
{"sequence": "TFLCSSLALAVI", "protein stability index": "0.334 ± 0.014"}
{"sequence": "TGYRYVGRFFVV", "protein stability index": "0.163 ± 0.02"}
{"sequence": "TLCFRLSWVLLV", "protein stability index": "0.0265 ± 0.0028"}
{"sequence": "TLNKDILIIKCA", "protein stability index": "0.175 ± 0.022"}
{"sequence": "TNFVVRLRFVLF", "protein stability index": "0.295 ± 0.0087"}
{"sequence": "TVRVVMLRLLFT", "protein stability index": "0.33 ± 0.024"}
{"sequence": "VAFLWVAFCFSG", "protein stability index": "0.203 ± 0.016"}
{"sequence": "VAIMSIWLVYML", "protein stability index": "0.333 ± 0.0079"}
{"sequence": "VALAVRVVVCGA", "protein stability index": "0.108 ± 0.028"}
{"sequence": "VAWCVWCWWWAV", "protein stability index": "0.0674 ± 0.015"}
{"sequence": "VCLFWLFLWRIL", "protein stability index": "0.182 ± 0.0051"}
{"sequence": "VCLWVEVLIVLG", "protein stability index": "0.129 ± 0.021"}
{"sequence": "VCPWGYCSEWGF", "protein stability index": "0.687 ± 0.014"}
{"sequence": "VFCSVGVSLFFG", "protein stability index": "0.284 ± 0.023"}
{"sequence": "VFFLFAVCSVLV", "protein stability index": "0.0857 ± 0.033"}
{"sequence": "VFFLRVHFWSFF", "protein stability index": "0.168 ± 0.0092"}
{"sequence": "VFFLVHFHLPMF", "protein stability index": "0.401 ± 0.019"}
{"sequence": "VFGFLVFYVCVR", "protein stability index": "0.151 ± 0.026"}
{"sequence": "VFHMFGWCGGAR", "protein stability index": "0.673 ± 0.028"}
{"sequence": "VFLFSLCIRLSR", "protein stability index": "0.147 ± 0.018"}
{"sequence": "VFLVFSVWVVYR", "protein stability index": "0.218 ± 0.026"}
{"sequence": "VFLVRTVTQISA", "protein stability index": "0.254 ± 0.028"}
{"sequence": "VFRLFFLLVWLV", "protein stability index": "0.112 ± 0.026"}
{"sequence": "VFRLLALLWRFF", "protein stability index": "0.31 ± 0.022"}
{"sequence": "VFSLAFYLVLFF", "protein stability index": "0.319 ± 0.029"}
{"sequence": "VFSRVLSVLLSA", "protein stability index": "0.282 ± 0.027"}
{"sequence": "VFVGWVLCVVGG", "protein stability index": "0.132 ± 0.027"}
{"sequence": "VFWLLVAVLRYW", "protein stability index": "0.222 ± 0.016"}
{"sequence": "VGVSVVMVVEVP", "protein stability index": "0.042 ± 0.0027"}
{"sequence": "VGVVLWWVVLMV", "protein stability index": "0.16 ± 0.029"}
{"sequence": "VGYHCIVGVIFL", "protein stability index": "0.372 ± 0.013"}
{"sequence": "VIRFNSAPRFLV", "protein stability index": "0.125 ± 0.016"}
{"sequence": "VIWIRMISFFVW", "protein stability index": "0.188 ± 0.034"}
{"sequence": "VIYNSALLLVRL", "protein stability index": "0.25 ± 0.023"}
{"sequence": "VLAFFPLFFFLS", "protein stability index": "0.126 ± 0.015"}
{"sequence": "VLGARWHWIYIA", "protein stability index": "0.078 ± 0.023"}
{"sequence": "VLGLYSLLLSFF", "protein stability index": "0.305 ± 0.0096"}
{"sequence": "VLGRCWWIVSDL", "protein stability index": "0.67 ± 0.024"}
{"sequence": "VLISLVLLFRCW", "protein stability index": "0.248 ± 0.03"}
{"sequence": "VLLMFFFRFSAL", "protein stability index": "0.491 ± 0.022"}
{"sequence": "VLVFYFCFSFCS", "protein stability index": "0.129 ± 0.029"}
{"sequence": "VLVLSFLYRMVK", "protein stability index": "0.304 ± 0.017"}
{"sequence": "VLVSYAIVILYL", "protein stability index": "0.149 ± 0.019"}
{"sequence": "VLVVLVVCRRAE", "protein stability index": "0.226 ± 0.029"}
{"sequence": "VLYLQCITSAGH", "protein stability index": "0.29 ± 0.037"}
{"sequence": "VMRMVWVLGVMC", "protein stability index": "0.203 ± 0.028"}
{"sequence": "VPSMSIVWCRVL", "protein stability index": "0.123 ± 0.018"}
{"sequence": "VPSPWVFSLFLH", "protein stability index": "0.139 ± 0.0022"}
{"sequence": "VQFISLVCLFRF", "protein stability index": "0.303 ± 0.018"}
{"sequence": "VQWPLLVVGCMG", "protein stability index": "0.251 ± 0.036"}
{"sequence": "VSFRISAIFVCV", "protein stability index": "0.202 ± 0.028"}
{"sequence": "VSPATFLFYFFF", "protein stability index": "0.396 ± 0.013"}
{"sequence": "VTFCFLFVWFLV", "protein stability index": "0.226 ± 0.012"}
{"sequence": "VTGFGVAIVCVT", "protein stability index": "0.241 ± 0.033"}
{"sequence": "VVFFFKFFLLRL", "protein stability index": "0.246 ± 0.035"}
{"sequence": "VVGLVSIVQVIM", "protein stability index": "0.31 ± 0.024"}
{"sequence": "VVGRWGFVVECW", "protein stability index": "0.249 ± 0.025"}
